Assay results as given in patent US20030118612A1 (MAXYGEN, published 2003).
Residue numbers refer to the chain shown, from its start. Numbers in names are those of the source.

T1: human G-CSF receptor (human, UniProt Q99062 25-836)
T1 sequence (looked up): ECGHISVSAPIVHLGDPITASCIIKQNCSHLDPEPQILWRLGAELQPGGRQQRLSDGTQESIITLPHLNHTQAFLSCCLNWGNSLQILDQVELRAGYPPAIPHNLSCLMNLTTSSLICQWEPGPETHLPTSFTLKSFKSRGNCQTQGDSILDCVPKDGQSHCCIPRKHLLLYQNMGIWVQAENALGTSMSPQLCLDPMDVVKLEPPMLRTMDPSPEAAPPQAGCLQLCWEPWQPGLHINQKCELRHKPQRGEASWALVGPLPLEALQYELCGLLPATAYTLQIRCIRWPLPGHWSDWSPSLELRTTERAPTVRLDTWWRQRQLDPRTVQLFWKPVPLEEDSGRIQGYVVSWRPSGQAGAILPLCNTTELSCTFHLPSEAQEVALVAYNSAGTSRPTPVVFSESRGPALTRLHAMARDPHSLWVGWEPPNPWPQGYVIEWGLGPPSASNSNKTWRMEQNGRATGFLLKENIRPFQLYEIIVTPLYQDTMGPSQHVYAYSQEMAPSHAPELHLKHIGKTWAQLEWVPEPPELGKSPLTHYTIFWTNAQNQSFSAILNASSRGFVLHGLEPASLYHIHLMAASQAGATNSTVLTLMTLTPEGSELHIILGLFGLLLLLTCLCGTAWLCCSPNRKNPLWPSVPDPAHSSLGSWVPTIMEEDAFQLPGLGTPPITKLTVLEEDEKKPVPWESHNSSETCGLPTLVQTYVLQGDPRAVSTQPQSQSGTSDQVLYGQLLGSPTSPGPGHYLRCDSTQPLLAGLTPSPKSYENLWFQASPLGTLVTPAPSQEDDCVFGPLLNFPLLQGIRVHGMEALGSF

B1: G-CSF variant K16/34/40R E46K conjugated to SPA-PEG 5000 (ligand)
chain: TPLGPASSLPQSFLLRCLEQVRKIQGDGAALQERLCATYRLCHPEKLVLLGHSLGIPWAPLSSCPSQALQLAGCLSQLHSGLFLYQGLLQALEGISPELGPTLDTLQLDVADFATTIWQQMEELGMAPALQPTQGAMPAFASAFQRRAGGVLVASHLQSFLEVSYRVLRHLAQP
modifications: SPA-PEG 5000 conjugated to the available PEGylation sites
B2: G-CSF variant K16/34/40R S66K conjugated to SPA-PEG 5000 (ligand)
chain: B1 chain with K46E, S66K
modifications: SPA-PEG 5000 conjugated to the available PEGylation sites
B3: G-CSF variant K16/34/40R S159K conjugated to SPA-PEG 5000 (ligand)
chain: B1 chain with K46E, S159K
modifications: SPA-PEG 5000 conjugated to the available PEGylation sites
B4: G-CSF variant K16/34/40R S155K conjugated to SPA-PEG 5000 (ligand)
chain: B1 chain with K46E, S155K
modifications: SPA-PEG 5000 conjugated to the available PEGylation sites
B5: G-CSF variant K16/34/40R T133K conjugated to SPA-PEG 5000 (ligand)
chain: B1 chain with K46E, T133K
modifications: SPA-PEG 5000 conjugated to the available PEGylation sites
B6: G-CSF variant 16Q, non-conjugated (ligand)
chain: B1 chain with R16Q, R34K, R40K, K46E
B7: G-CSF variant K16/34/40R T105K conjugated to SPA-PEG 5000 (ligand)
chain: B1 chain with K46E, T105K
modifications: SPA-PEG 5000 conjugated to the available PEGylation sites
B8: G-CSF variant 16Q conjugated to SPA-PEG 5000 (ligand)
chain: B1 chain with R16Q, R34K, R40K, K46E
modifications: SPA-PEG 5000 conjugated to the available PEGylation sites
B9: G-CSF variant K16/34/40R S80K, non-conjugated (ligand)
chain: B1 chain with K46E, S80K
B10: G-CSF variant K16/34/40R Q120K conjugated to SPA-PEG 5000 (ligand)
chain: B1 chain with K46E, Q120K
modifications: SPA-PEG 5000 conjugated to the available PEGylation sites
B11: G-CSF variant K16/34/40R Q67K conjugated to SPA-PEG 5000 (ligand)
chain: B1 chain with K46E, Q67K
modifications: SPA-PEG 5000 conjugated to the available PEGylation sites
B12: G-CSF variant K16/34/40R R147K conjugated to SPA-PEG 5000 (ligand)
chain: B1 chain with K46E, R147K
modifications: SPA-PEG 5000 conjugated to the available PEGylation sites
B13: G-CSF variant K16/34/40R S62K, non-conjugated (ligand)
chain: B1 chain with K46E, S62K
B14: G-CSF variant K16/34/40R Q90K Q120K, non-conjugated (ligand)
chain: B1 chain with K46E, Q90K, Q120K
B15: G-CSF variant K16/34/40R T105K, non-conjugated (ligand)
chain: B1 chain with K46E, T105K
B16: G-CSF variant K16/34/40R Q134K conjugated to SPA-PEG 5000 (ligand)
chain: B1 chain with K46E, Q134K
modifications: SPA-PEG 5000 conjugated to the available PEGylation sites
B17: G-CSF variant 16R conjugated to SPA-PEG 5000 (ligand)
chain: B1 chain with R34K, R40K, K46E
modifications: SPA-PEG 5000 conjugated to the available PEGylation sites
B18: G-CSF variant K16/34/40R S142K, non-conjugated (ligand)
chain: B1 chain with K46E, S142K
B19: G-CSF variant K16/34/40R S76, non-conjugated (ligand)
chain: B1 chain with K46E, S76K
B20: G-CSF variant K16/34/40R Q70K Q90K conjugated to SPA-PEG 5000 (ligand)
chain: B1 chain with K46E, Q70K, Q90K
modifications: SPA-PEG 5000 conjugated to the available PEGylation sites
B21: G-CSF variant K16/34/40R T133K, non-conjugated (ligand)
chain: B1 chain with K46E, T133K
B22: G-CSF variant K16/34/40R Q134K, non-conjugated (ligand)
chain: B1 chain with K46E, Q134K
B23: G-CSF variant K16/34/40R S159K, non-conjugated (ligand)
chain: B1 chain with K46E, S159K
B24: G-CSF variant K16/34/40R Q90K conjugated to SPA-PEG 5000 (ligand)
chain: B1 chain with K46E, Q90K
modifications: SPA-PEG 5000 conjugated to the available PEGylation sites
B25: G-CSF variant K16/34/40R Q90K T105K, non-conjugated (ligand)
chain: B1 chain with K46E, Q90K, T105K
B26: G-CSF variant K16/34/40R Q158 conjugated to SPA-PEG 5000 (ligand)
chain: B1 chain with K46E, Q158K
modifications: SPA-PEG 5000 conjugated to the available PEGylation sites
B27: G-CSF variant K16/34/40R Q120K, non-conjugated (ligand)
chain: B1 chain with K46E, Q120K
B28: G-CSF variant K16/34/40R S80K conjugated to SPA-PEG 5000 (ligand)
chain: B1 chain with K46E, S80K
modifications: SPA-PEG 5000 conjugated to the available PEGylation sites
B29: G-CSF variant K16/34/40R S53K conjugated to SPA-PEG 5000 (ligand)
chain: B1 chain with K46E, S53K
modifications: SPA-PEG 5000 conjugated to the available PEGylation sites
B30: G-CSF variant K16/34/40R S76 conjugated to SPA-PEG 5000 (ligand)
chain: B1 chain with K46E, S76K
modifications: SPA-PEG 5000 conjugated to the available PEGylation sites
B31: G-CSF variant 16R, non-conjugated (ligand)
chain: B1 chain with R34K, R40K, K46E
B32: G-CSF variant K16/34/40R R147K, non-conjugated (ligand)
chain: B1 chain with K46E, R147K
B33: G-CSF variant K16/34/40R Q90K Q120K conjugated to SPA-PEG 5000 (ligand)
chain: B1 chain with K46E, Q90K, Q120K
modifications: SPA-PEG 5000 conjugated to the available PEGylation sites
B34: G-CSF variant K16/34/40R Q158, non-conjugated (ligand)
chain: B1 chain with K46E, Q158K
B35: G-CSF variant K16/34/40R Q70K Q120K, non-conjugated (ligand)
chain: B1 chain with K46E, Q70K, Q120K
B36: G-CSF variant K16/34/40R S155K, non-conjugated (ligand)
chain: B1 chain with K46E, S155K
B37: G-CSF variant K16/34/40R S66K, non-conjugated (ligand)
chain: B1 chain with K46E, S66K
B38: G-CSF variant K16/34/40R S62K conjugated to SPA-PEG 5000 (ligand)
chain: B1 chain with K46E, S62K
modifications: SPA-PEG 5000 conjugated to the available PEGylation sites
B39: G-CSF variant K16/34/40R Q77 conjugated to SPA-PEG 5000 (ligand)
chain: B1 chain with K46E, Q77K
modifications: SPA-PEG 5000 conjugated to the available PEGylation sites
B40: G-CSF variant K16/34/40R Q90K T105K conjugated to SPA-PEG 5000 (ligand)
chain: B1 chain with K46E, Q90K, T105K
modifications: SPA-PEG 5000 conjugated to the available PEGylation sites
B41: G-CSF variant K16/34/40R S142K conjugated to SPA-PEG 5000 (ligand)
chain: B1 chain with K46E, S142K
modifications: SPA-PEG 5000 conjugated to the available PEGylation sites
B42: G-CSF variant K16/34/40R D104K, non-conjugated (ligand)
chain: B1 chain with K46E, D104K
B43: G-CSF variant K16/34/40R Q70K, non-conjugated (ligand)
chain: B1 chain with K46E, Q70K
B44: G-CSF variant K16/34/40R Q90K, non-conjugated (ligand)
chain: B1 chain with K46E, Q90K
B45: G-CSF variant K16/34/40R Q67K, non-conjugated (ligand)
chain: B1 chain with K46E, Q67K
B46: G-CSF variant K16/34/40R S53K, non-conjugated (ligand)
chain: B1 chain with K46E, S53K
B47: G-CSF variant K16/34/40R Q77, non-conjugated (ligand)
chain: B1 chain with K46E, Q77K
B48: G-CSF variant K16/34/40R D104K conjugated to SPA-PEG 5000 (ligand)
chain: B1 chain with K46E, D104K
modifications: SPA-PEG 5000 conjugated to the available PEGylation sites
B49: G-CSF variant K16/34/40R Q70K Q120K conjugated to SPA-PEG 5000 (ligand)
chain: B1 chain with K46E, Q70K, Q120K
modifications: SPA-PEG 5000 conjugated to the available PEGylation sites
B50: G-CSF variant K16/34/40R Q70K conjugated to SPA-PEG 5000 (ligand)
chain: B1 chain with K46E, Q70K
modifications: SPA-PEG 5000 conjugated to the available PEGylation sites

target: T1, human G-CSF receptor; assay: cell-based or functional assay

| EC50 (% of hG-CSF) conjugated to SPA-PEG 5000 | EC50 (% of hG-CSF) non-conjugated | Binder |
| --- | --- | --- |
| 1 % of hG-CSF |  | B1 |
| 2 % of hG-CSF |  | B2 |
| 3 % of hG-CSF |  | B3 |
| 1 % of hG-CSF |  | B4 |
| 10 % of hG-CSF |  | B5 |
|  | 80 % of hG-CSF | B6 |
| 10 % of hG-CSF |  | B7 |
| 1 % of hG-CSF |  | B8 |
|  | 10 % of hG-CSF | B9 |
| 20 % of hG-CSF |  | B10 |
| 0.2 % of hG-CSF |  | B11 |
| 1 % of hG-CSF |  | B12 |
|  | 10 % of hG-CSF | B13 |
|  | 25 % of hG-CSF | B14 |
|  | 30 % of hG-CSF | B15 |
| 0.2 % of hG-CSF |  | B16 |
| 1 % of hG-CSF |  | B17 |
|  | 20 % of hG-CSF | B18 |
|  | 50 % of hG-CSF | B19 |
| 20 % of hG-CSF |  | B20 |
|  | 30 % of hG-CSF | B21 |
|  | 10 % of hG-CSF | B22 |
|  | 20 % of hG-CSF | B23 |
| 20 % of hG-CSF |  | B24 |
|  | 40 % of hG-CSF | B25 |

| EC50 (% of hG-CSF) conjugated to SPA-PEG 5000 | EC50 (% of hG-CSF) non-conjugated | Binder |
| --- | --- | --- |
| 5 % of hG-CSF |  | B26 |
|  | 30 % of hG-CSF | B27 |
| 0.2 % of hG-CSF |  | B28 |
| 0.5 % of hG-CSF |  | B29 |
| 20 % of hG-CSF |  | B30 |
|  | 100 % of hG-CSF | B31 |
|  | 20 % of hG-CSF | B32 |
| 15 % of hG-CSF |  | B33 |
|  | 20 % of hG-CSF | B34 |
|  | 25 % of hG-CSF | B35 |
|  | 20 % of hG-CSF | B36 |
|  | 20 % of hG-CSF | B37 |
| 0.5 % of hG-CSF |  | B38 |
| 0 % of hG-CSF |  | B39 |
| 10 % of hG-CSF |  | B40 |
| 7 % of hG-CSF |  | B41 |
|  | 10 % of hG-CSF | B42 |
|  | 30 % of hG-CSF | B43 |
|  | 30 % of hG-CSF | B44 |
|  | 10 % of hG-CSF | B45 |
|  | 5 % of hG-CSF | B46 |
|  | 1 % of hG-CSF | B47 |
| 0.9 % of hG-CSF |  | B48 |
| 25 % of hG-CSF |  | B49 |
| 20 % of hG-CSF |  | B50 |
